What was measured:
Test in all cases: immobilized peptide pulldown, SILAC LC-MS/MS
Conditions in all cases: reference: unphosphorylated peptide; sites Y595
Nck2 = Nck2 (UniProt O43639)
Nck1 = Nck1 (UniProt P16333)
SLP-76 = SLP-76 (UniProt Q13094)
PLCγ1 = PLCγ1 (UniProt P19174)

Measured: fold change

ADAP 586-600 (from UniProt O15117) pY595 peptide
stronger: all assays above
